According to patent publication US11793825B2, “Biomarkers for predicting responsiveness to decitabine therapy” (The Regents of the University of Michigan, priority 2014, dated 2023):
Entries after “also recorded” stand apart in the source; their conditions may differ.

What was measured:
CMML patients [1] = test: GFM clinical trial cohort of CMML patients treated with Decitabine; assay type: in vivo, human; details: DAC 20 mg/m2/day x 5 days
Procedure: In order to independently validate the predictive accuracy of the SVM classifier, a second cohort of patients on which to test its performance was identified. Twenty-eight additional diagnostic CMML specimens from patients enrolled in a clinical trial from the Groupe Francophone des Myelodysplasies (GFM), all of whom had been treated with the same DAC regimen of 20 mg/m^2/day×5 days were collected and subjected to ERRBS (Table 2, Table 3). Specimens in this cohort consisted of sorted monocytes from peripheral blood (PB) and the cohort included 12 responder and 16 non-responder patients. The SVM classifier was applied blindly to these samples, without any prior knowledge of the therapeutic response labels for the cohort. Due to the stochastic nature of ERRBS, the CpG coverage is never identical across all samples, thereby leading to missing values for some regions of interest. In effect, only 6 out of the 21 features were present in all 28 GFM cohort samples. Therefore, an SVM classifier was built on these six shared features by training it on the 39 samples of the FISM cohort and then applying the trained classifier on the GFM cohort. As shown in FIG. 8D and FIG. 11B, despite this limitation the 6-feature classifier was still capable of correctly predicting response for 20/28 patients in the GFM cohort (accuracy=71%). […]

CMML patients [2] = test: FISM clinical trial cohort of CMML patients treated with Decitabine; assay type: in vivo, human; details: DAC 20 mg/m2/day x 5 days
Procedure: To determine whether particular genetic or epigenetic abnormalities are associated with DMTi sensitivity or resistance in this disease a cohort of primary CMML cases was studied. Bone marrow mononuclear cells (BM MNC) were collected at the time of diagnosis from 40 patients with de novo CMML. All patients included in this study were enrolled in a clinical trial of the Fondazione Italiana per le Sindromi Mielodisplastiche (FISM) and treated with DAC single agent as front-line therapy (20 mg/m^2/day×5 days) and response was evaluated after 6 cycles of treatment. Responsive patients (n=20) were defined as those who achieved either complete remission (CR), marrow complete remission (mCR), partial remission (PR) or hematological improvement (HI), as defined by the 2006 International Working Group (IWG) response criteria in myelodysplasia (see, e.g., Cheson, B. D., Blood. 2006; 108(2):419-425). Patients with either stable or progressive disease (SD and PD, respectively) were considered as having primary resistance to DAC (n=20). […] Using MiSeq to sequence DNA isolated from the diagnostic BM MNC targeted re-sequencing of a panel of genes mutated at frequencies greater than 5% in CMML was performed: SRSF2, TET2, ASXL1, NRAS, DNMT3A, RUNX1, U2AF1, TP53, JAK2, KIT, KRAS, SF3B1, EZH2, IDH1, and IDH2. […]

[3] = system: primary human CD34+ cells; test: Colony forming assay in methylcellulose; assay type: cell-based; details: chemokine 50 ng/mL (each) plus 10 nM DAC for 3 days
Procedure: (§1) CD34+ cells were treated with one dose of CXCL4, CXCL7, or both (50 ng/mL each) or vehicle (PBS/0.1% BSA) and daily doses of 10 nM DAC for 3 days. After 3 days of in vitro treatment with DAC, the cells were plated in methylcellulose and incubated for 12-15 days before colonies were counted. Data represent mean+standard deviation (SD). […] Shown in the three panels are the results of three independent experiments. […] CMML MNC were treated in vitro for 72 h with 10 nM DAC alone or in the presence of 50 ng/mL of CXCL4, CXCL7, or both. Data represent mean+standard deviation (SD).
(§2) Cell culture and colony forming assays: CD34+ cells were isolated from cryopreserved BM MNC from femoral head specimens using the Miltenyi Biotec CD34 microbead isolation kit (San Diego, CA) per the manufacturer's instructions. For CMML cells, the cryopreserved BM MNC were rapidly thawed at 37° C. and treated with DNAse to prevent cell clumping. Cells were plated in pre-stimulation media (IMDM with 20% BIT (Stem Cell Technologies, Vancouver, BC, Canada), IL-6 (20 ng/mL), SCF (100 ng/ml), TPO (100 ng/mL), FLT3L (10 ng/mL); Peprotech, Rocky Hill, N.J.) and recovered overnight. […] Live cell number and viability were determined by trypan blue exclusion. […] Colonies were counted after 12 to 15 days.

[4] = system: primary human CD34+ cells; test: CD34+ cell liquid culture, live cell number and viability by trypan blue exclusion; assay type: cell-based; details: 10 nM DAC daily for 3 days, with or without CXCL4/CXCL7 50 ng/mL each
Procedure: CD34+ cells were treated with one dose of CXCL4, CXCL7, or both (50 ng/mL each) or vehicle (PBS/0.1% BSA) and daily doses of 10 nM DAC for 3 days. After 3 days, live cell number (A) and viability (B) were assessed by trypan blue exclusion, and apoptosis (C) was analyzed by Annexin V and propodium iodide staining. The results shown are from one representative experiment out of two independent experiments.
Therefore, it was hypothesized that overabundance of CXCL4 and CXCL7 in the bone marrow microenvironment may act to overcome the effects of DAC. To test this, primary human CD34+ cells were cultured for 3 days in vitro with CXCL4 (50 ng/mL), CXCL7 (50 ng/mL) or a combination of both chemokines in either the presence or absence of low-dose DAC (10 nM) and then plated them in methylcellulose to test their clonogenic potential.
as §2, with “clumping.” for “clumping. Cells were plated in pre-stimulation media (IMDM with 20% BIT (Stem Cell Technologies, Vancouver, BC, Canada), IL-6 (20 ng/mL), SCF (100 ng/ml), TPO (100 ng/mL), FLT3L (10 ng/mL); Peprotech, Rocky Hill, N.J.) and recovered overnight.”

bone marrow cells = details: in vitro; cited from earlier work
[5] = system: primary CMML cells (BM MNC); test: Viability of primary CMML BM MNC in liquid culture; assay type: cell-based, human; details: chemokine 50 ng/mL plus 10 nM DAC, 72 h
Procedure: as §1
Finally, the ability of CXCL4 and CXCL7 to induce resistance in primary CMML cells was tested. BM MNC from diagnostic specimens collected from 3 patients known to be sensitive to DAC were placed in liquid culture and treated for 72 h with 10 nM DAC in the presence or absence of 50 ng/mL of CXCL4, CXCL7 or a combination of both. Viability was assessed after 72 hours.
Cell culture and colony forming assays: CD34+ cells were isolated from cryopreserved BM MNC from femoral head specimens using the Miltenyi Biotec CD34 microbead isolation kit (San Diego, CA) per the manufacturer's instructions. […] Live cell number and viability were determined by trypan blue exclusion. […] Colonies were counted after 12 to 15 days.

In the case of `Nc1ncn([C@H]2C[C@H](O)[C@@H](CO)O2)c(=O)n1` [DAC, Decitabine], the “Median Survival” value (CMML patients [1]; non-responders (n=16)) is reported as 14.5 months, the “Median Survival” value (CMML patients [1]; responders (n=12)) is reported as 39 months and the “Median Survival” value (CMML patients [2]; non-responders (n=20)) is reported as 13.5 months. For the same molecule, the “Median Survival” value (CMML patients [2]; responders (n=20)) was 26.5 months.

B1: CXCL4: chemokine CXCL4 (also known as PF4), Peprotech, used at 50 ng/mL (protein, UniProt P02776 32-101, looked up)
Platelet factor 4: EAEEDGDLQCLCVKTTSQVRPRHITSLEVIKAGPHCPTAQLIATLKNGRKICLDLQAPLYKKIIKKLLES
In the case of B1, the “effect of chemokine on DAC-induced inhibition of colony formation” value [3] is given as “did not have a significant impact on DAC-induced colony inhibition”, the “cell proliferation (live cell number)” value [4] is given as “did not affect cell proliferation” and the “chemosensitivity of bone marrow cells to 5-fluorouracil” value (bone marrow cells) is given as “can reduce the chemosensitivity of bone marrow cells to 5-fluorouracil”. The “effect of chemokine on the DAC-induced decrease in viability of primary CMML cells” value [5] was “abrogated the effect of DAC; also recorded: this effect was lost”.

B2: CXCL7: chemokine CXCL7 (also known as PPBP), Peprotech, used at 50 ng/mL (protein, UniProt P02775 59-128, looked up)
Neutrophil-activating peptide …: AELRCMCIKTTSGIHPKNIQSLEVIGKGTHCNQVEVIATLKDGRKICLDPDAPRIKKIVQKKLAGDESAD
modifications: Neutrophil-activating peptide 2
notes: chemokine CXCL7 (also known as PPBP), Peprotech, used at 50 ng/mL
In the case of B2, the “effect of chemokine on DAC-induced inhibition of colony formation” value [3] is given as “did not have a significant impact on DAC-induced colony inhibition”, the “cell proliferation (live cell number)” value [4] is given as “did not affect cell proliferation” and the “chemosensitivity of bone marrow cells to 5-fluorouracil” value (bone marrow cells) is given as “can reduce the chemosensitivity of bone marrow cells to 5-fluorouracil”. The “effect of chemokine on the DAC-induced decrease in viability of primary CMML cells” value [5] was “abrogated the effect of DAC; also recorded: this effect was lost”.
